Target: T1, bovine thyroglobulin (bovine, UniProt P01267 20-2769, carries alpha-gal (galactose-alpha-1,3-galactose) glycans)
T1 construct: Antigen coated on ELISA plates, blotted, or on the ImmunoCAP o215 solid phase; It is recognised through its alpha-gal glycans; also called BTG; Thyroglobulin, bovine
Experiment: direct ELISA, bovine thyroglobulin coated at 25 ug/ml, purified IgE dilution series
Text: Relative fluorescence intensity or optical density was determination on a Molecular Devices plate reader.
By performing EC₅₀ assays using purified IgE mAb, rough comparisons between mAb binding can be made.

T1 sequence (P01267 20-2769 limits assumed): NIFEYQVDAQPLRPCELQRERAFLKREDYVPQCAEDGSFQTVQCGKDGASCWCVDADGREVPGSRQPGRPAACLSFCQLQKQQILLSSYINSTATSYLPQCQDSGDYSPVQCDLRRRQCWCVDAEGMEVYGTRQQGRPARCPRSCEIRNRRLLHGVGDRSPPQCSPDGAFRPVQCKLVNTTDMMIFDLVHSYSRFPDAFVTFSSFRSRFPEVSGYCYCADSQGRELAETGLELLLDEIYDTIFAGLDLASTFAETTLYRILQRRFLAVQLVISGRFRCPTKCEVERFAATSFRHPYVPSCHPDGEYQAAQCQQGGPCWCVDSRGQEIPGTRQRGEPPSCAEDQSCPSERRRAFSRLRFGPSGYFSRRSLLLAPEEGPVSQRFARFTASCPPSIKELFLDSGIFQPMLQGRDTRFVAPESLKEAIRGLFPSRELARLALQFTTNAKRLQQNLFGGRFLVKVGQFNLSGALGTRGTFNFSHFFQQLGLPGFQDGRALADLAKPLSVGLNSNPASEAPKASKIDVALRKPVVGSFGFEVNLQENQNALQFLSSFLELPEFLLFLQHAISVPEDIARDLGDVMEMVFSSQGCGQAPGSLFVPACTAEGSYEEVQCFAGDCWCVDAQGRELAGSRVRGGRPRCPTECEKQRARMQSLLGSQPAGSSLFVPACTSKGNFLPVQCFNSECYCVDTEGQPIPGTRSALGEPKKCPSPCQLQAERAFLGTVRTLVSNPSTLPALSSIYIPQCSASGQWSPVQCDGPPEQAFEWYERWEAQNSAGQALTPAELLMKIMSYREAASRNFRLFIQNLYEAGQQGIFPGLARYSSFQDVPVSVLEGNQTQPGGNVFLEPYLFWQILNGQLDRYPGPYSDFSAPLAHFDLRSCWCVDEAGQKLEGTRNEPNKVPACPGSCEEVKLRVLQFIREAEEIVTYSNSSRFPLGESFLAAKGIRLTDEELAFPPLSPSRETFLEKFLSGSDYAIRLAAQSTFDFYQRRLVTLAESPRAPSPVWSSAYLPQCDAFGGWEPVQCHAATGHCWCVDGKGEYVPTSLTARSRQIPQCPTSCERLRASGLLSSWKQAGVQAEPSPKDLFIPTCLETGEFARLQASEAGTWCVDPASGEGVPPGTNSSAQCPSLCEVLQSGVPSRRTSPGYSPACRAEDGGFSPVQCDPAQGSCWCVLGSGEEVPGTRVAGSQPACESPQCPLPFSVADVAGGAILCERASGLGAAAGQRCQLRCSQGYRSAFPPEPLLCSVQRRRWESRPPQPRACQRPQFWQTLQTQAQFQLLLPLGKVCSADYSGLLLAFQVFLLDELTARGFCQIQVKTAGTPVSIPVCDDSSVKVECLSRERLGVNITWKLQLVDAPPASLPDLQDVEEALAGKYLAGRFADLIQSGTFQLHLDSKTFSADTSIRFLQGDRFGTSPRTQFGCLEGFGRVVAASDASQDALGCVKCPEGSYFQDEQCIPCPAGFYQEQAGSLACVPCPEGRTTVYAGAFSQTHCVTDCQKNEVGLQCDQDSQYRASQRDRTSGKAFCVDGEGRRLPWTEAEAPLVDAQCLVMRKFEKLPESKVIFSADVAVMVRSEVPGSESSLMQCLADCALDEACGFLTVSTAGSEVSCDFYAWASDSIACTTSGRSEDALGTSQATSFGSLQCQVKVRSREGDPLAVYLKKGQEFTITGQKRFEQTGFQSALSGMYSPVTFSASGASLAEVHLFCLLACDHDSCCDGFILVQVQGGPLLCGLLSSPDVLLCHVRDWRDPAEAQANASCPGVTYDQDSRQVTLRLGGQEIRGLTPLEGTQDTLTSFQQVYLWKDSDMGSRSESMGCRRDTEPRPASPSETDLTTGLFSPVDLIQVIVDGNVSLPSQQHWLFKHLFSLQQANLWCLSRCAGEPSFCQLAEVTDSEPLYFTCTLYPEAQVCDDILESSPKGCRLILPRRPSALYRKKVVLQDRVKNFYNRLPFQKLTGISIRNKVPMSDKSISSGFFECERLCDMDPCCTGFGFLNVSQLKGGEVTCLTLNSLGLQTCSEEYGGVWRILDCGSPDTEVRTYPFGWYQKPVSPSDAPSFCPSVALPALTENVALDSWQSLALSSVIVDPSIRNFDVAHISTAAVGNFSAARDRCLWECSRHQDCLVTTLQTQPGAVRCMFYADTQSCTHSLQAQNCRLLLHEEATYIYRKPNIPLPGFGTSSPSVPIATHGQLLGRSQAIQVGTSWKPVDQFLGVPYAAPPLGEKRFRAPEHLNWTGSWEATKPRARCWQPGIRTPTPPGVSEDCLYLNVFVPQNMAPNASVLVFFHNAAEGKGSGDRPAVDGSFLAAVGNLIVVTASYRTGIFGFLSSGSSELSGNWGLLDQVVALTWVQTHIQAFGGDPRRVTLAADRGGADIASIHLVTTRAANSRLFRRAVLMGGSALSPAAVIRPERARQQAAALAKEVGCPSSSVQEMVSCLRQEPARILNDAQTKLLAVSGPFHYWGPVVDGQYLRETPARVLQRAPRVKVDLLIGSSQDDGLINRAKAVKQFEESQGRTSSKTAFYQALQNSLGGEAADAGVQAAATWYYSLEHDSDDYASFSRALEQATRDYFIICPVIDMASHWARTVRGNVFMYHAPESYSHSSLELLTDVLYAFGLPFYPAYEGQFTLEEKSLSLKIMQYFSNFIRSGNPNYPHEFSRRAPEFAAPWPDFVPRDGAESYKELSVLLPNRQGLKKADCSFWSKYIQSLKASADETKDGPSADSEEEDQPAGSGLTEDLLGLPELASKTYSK

Row | Binder | EC50
1 | human alpha-gal-specific IgE mAb 16D9 (antibody, V domains shown, the IgE constant regions are not) VH: QVQLQQWGAGLLKPSETLSLTCAVYGGTFSDYFYTWIRQPPGKGLEWIGEVSHTGRTSYIPSLKSRVTMSVDTSKNQFSLNLSSVTDADTAVYYCGRGRGYTWNDWGQGTLVTVSS VL: QSALTQPASVSGSPGQSITISCTGTITDVGGYDYVSWYQQHPGKAPKLIIFLVNNRPSGVSDRFSGSKSGNTASLTISGLRVEDEADYYCMSYTCSNPYTCSSLYVFGTGTKVTVL | 0.016 µg/mL
2 | human alpha-gal-specific IgE mAb 10H8 (antibody, V domains shown, the IgE constant regions are not) VH: QVQLVESGGGVVQPGRSLRLSCAVSGFTFRSFGMHWVRQAPGKGLEWVAVIWHDGSNKHYADSVKGRFTISRDDSKNTLFLQMNSLRAEDTAVYYCARESEEQGNMDVWGQGTTVTVSS VL: DVVMTQSPLSLPATLGQPASISCRSSHSLVYSNGNTYLNWFQQRPGQSPRRLFFQVSNRDSGVPDRFSGSGSVTNFTLKISRVEAEDVGVYYCMEGSHWPPYTFGQGTRLDIR | 0.072 µg/mL
